In US20030143595A1:

Molecular target: Shh-AP fusion protein (Sonic hedgehog fused to alkaline phosphatase)
Assay: ligand-receptor binding study, Scatchard analysis (FIG. 3)

Chain of Shh-AP fusion protein (Sonic hedgehog fused to alkaline phosphatase) (Q62226 25-198): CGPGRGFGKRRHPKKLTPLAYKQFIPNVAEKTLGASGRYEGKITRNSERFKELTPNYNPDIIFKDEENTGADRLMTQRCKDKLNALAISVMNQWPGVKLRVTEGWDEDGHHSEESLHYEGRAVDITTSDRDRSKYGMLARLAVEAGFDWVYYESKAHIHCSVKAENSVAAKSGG

Kd: 1 nM
B1: murine HIP polypeptide (mouse hedgehog interacting protein) (receptor)
chain: LGFFEGDAKFGERSEGSGARRRRCLNGNPPKRLKRRDRRVMSQLELLSGGEILCGGFYPRVSCCLQSDSPGLGRLENKIFSATNNSECSRLLEEIQCAPCSPHSQSLFYTPERDVLDGDLALPLLCKDYCKEFFYTCRGHIPGLLQTTADEFCFYYARKDAGLCFPDFPRKQVRGPASNYLGQMEDYEKVGGISRKHKHNCLCVQEVMSGLRQPVSAVHSGDGSHRLFILEKEGYVKILTPEGELFKEPYLDIHKLVQSGIKGGDERGLLSLAFHPNYKKNGKLYVSYTTNQERWAIGPHDHILRVVEYTVSRKNPHQVDVRTARVFLEVAELHRKHLGGQLLFGPDGFLYIILGDGMITLDDMEEMDGLSDFTGSVLRLDVDTDMCNVPYSIPRSNPHFNSTNQPPEVFAHGLHDPGRCAVDRHPTDININLTILCSDSNGKNRSSARILQIIKGRDYESEPSLLEFKPFSNGPLVGGFVYRGCQSERLYGSYVFGDRNGNFLTLQQSPVTKQWQEKPLCLGASSSCRGYFSGHILGFGEDELGEVYILSSSKSMTQTHNGKLYKIVDPKRPLMPEECRVTVQPAQPLTSDCSRLCRNGYYTPTGKCCCSPGWEGDFCRIAKCEPACRHGGVCVRPNKCLCKKGYLGPQCEQVDRNVRRVTRAGILDQIIDMTSYLLDLTSYIV
